Assays:
Experiment in all cases: disulfide (cystamine) crosslinking, SDS-PAGE; 2.5 mM MnCl2; MST: 25 mM Hepes pH 7.5, 150 mM NaCl, 1 mM DTT, with or without 2 mM GTP and 2 mM MnCl2, 20 nM Cy5-tRNA, temperature not stated; crosslinking: 50 mM Tris pH 7.5, 25 mM NaCl, 25 mM KCl, 30% glycerol, 2.5 mM MnCl2, 0-1 mM DTT, 37 C 2 h then 24 C 14 h
Details in all cases: protein: recombinant; tags: His6-SUMO removed; single strand
[1] = target: T1, Tb-RtcB R237C (Thermococcus barophilus, UniProt F0LKB8 1-479, R237C)
T1 sequence: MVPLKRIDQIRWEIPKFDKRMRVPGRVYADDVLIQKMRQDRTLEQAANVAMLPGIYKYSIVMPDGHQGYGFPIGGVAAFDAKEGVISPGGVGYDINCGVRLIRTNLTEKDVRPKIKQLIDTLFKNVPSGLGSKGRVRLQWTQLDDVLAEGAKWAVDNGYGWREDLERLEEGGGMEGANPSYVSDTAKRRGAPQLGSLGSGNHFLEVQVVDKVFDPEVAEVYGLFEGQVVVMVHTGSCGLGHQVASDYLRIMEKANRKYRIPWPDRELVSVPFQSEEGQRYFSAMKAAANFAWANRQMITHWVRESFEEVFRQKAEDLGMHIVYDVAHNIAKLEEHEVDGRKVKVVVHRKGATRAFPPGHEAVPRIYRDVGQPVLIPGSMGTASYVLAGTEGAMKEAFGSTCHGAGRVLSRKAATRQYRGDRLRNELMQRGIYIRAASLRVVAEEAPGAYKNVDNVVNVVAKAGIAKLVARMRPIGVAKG

[2] = target: T2, Tb-RtcB L130C (Thermococcus barophilus, UniProt F0LKB8 1-479, L130C)
T2 sequence: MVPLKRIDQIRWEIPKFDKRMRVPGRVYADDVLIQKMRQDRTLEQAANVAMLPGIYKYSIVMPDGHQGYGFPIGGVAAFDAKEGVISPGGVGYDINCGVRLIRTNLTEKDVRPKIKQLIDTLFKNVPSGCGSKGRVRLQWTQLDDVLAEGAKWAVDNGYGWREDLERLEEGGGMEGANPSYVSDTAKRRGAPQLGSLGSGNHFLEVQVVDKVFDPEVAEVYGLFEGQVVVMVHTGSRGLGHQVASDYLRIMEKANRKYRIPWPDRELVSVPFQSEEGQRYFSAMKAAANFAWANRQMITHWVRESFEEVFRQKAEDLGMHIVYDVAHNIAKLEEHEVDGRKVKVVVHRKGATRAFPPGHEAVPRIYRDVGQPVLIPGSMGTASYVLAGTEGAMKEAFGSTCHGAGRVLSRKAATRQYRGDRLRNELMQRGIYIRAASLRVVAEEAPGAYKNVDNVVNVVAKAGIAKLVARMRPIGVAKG

[3] = target: T3, Tb-RtcB S199C (Thermococcus barophilus, UniProt F0LKB8 1-479, S199C)
T3 sequence: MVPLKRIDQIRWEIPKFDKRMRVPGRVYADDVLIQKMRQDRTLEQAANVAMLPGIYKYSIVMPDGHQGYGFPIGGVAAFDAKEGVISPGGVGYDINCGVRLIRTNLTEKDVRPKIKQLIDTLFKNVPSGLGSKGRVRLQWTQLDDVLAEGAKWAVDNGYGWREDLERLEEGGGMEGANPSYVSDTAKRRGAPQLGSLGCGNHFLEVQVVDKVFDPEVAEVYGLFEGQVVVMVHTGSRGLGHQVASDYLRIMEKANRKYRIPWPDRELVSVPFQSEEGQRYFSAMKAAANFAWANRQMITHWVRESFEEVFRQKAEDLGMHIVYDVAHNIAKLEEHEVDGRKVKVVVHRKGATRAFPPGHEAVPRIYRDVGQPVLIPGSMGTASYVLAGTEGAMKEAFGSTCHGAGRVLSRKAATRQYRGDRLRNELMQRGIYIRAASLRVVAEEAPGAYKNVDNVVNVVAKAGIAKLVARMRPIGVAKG

## AAACACCGGUGGAGG (ssRNA, cystamine on phosphate between nt 1 and 2; 2'-F at nt 1; 3'-phosphate) [RNA-2]
[1]
  binding result: binds

## AAACACCGGUGGAGG (ssRNA, cystamine on phosphate between nt 2 and 3; 2'-F at nt 2; 3'-phosphate) [RNA-1]
[2]
  binding result: binds
[3]
  binding result: binds
[1]
  binding result: binds

Source: paper PMC12135372, “Structural and biochemical characterization of the 3′-5′ tRNA splicing ligases”
